Data on 1 molecule can be found in patent publication US20030040050A1 (published 2003).

One test deals with T1, Flag-TRAF6 (UniProt Q9Y4K3 1-522).
T1 construct: The anti-TRAF6C peptide covers amino acids 497 to 522, which fits the 522-residue human protein; also called Flag-tagged TRAF6; 2Flag-TRAF6
T1 sequence (looked up): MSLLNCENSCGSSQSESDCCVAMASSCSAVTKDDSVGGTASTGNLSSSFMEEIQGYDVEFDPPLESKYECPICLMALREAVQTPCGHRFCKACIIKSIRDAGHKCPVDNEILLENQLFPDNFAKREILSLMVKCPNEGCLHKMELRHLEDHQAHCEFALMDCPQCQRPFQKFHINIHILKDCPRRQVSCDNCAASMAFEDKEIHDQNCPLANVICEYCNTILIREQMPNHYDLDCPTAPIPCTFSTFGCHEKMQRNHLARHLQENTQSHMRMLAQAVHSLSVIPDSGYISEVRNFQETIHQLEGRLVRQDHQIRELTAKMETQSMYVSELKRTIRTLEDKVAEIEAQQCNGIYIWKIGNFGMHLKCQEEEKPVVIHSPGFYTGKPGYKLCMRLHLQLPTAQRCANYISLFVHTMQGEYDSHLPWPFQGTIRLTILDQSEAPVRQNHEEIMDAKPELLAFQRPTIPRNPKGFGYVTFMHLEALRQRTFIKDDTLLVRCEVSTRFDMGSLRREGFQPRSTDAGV
The experiment in a line: coimmunoprecipitation from transfected 293 cells: IP anti-T7, immunoblot anti-Flag. An excerpt: (§1) (A) show an association of TAB2 with TRAF8 in mammalian cells. 293 cells were transiently transfected with an expression vector for 2Flag-TRAF6 in combination with empty vector (−) or with expression vectors for T7-TAB2-Full length (Full) (Full), T7-TAB2C (C), or T7-TAB2N (N) as indicated. Cell extracts were immunoprecipitated (IP) with anti-T7 (7) or mouse IgG (C). Coprecipitated Flag-TRAF6 was detected by immunoblotting (IB) with anti-Flag (upper panel, left). The amounts of immunoprecipitated T7-TAB2 proteins were determined with anti-T7 (lower panel). Whole cell extracts were immunoblotted with anti-Flag to determine total amounts of Flag-TRAF6 (upper panel, right).
The present inventors therefore determined whether TAB2 could interact with TRAF6 (FIG. 3A). T7-TAB2 was coexpressed with Flag-tagged TRAF6 in 293 cells and immunoprecipitated with anti-T7 antibody. The immune complexes were subjected to immunoblotting with a monoclonal antibody to Flag. TAB2 efficiently precipitated with TRAF6 (lane 4). To determine which domain of TAB2 is responsible for its TRAF6 association, the inventors tested whether TAB2N or TAB2C is able to bind to TRAF6, using the same experimental procedure. […] Thus, the C-terminal domain of TAB2 is required for TRAF6 binding.
(Immunoblotting shows a protein as a band on a membrane.)

A further test deals with T2, HA-TAK1 (UniProt Q62073 1-579, limits assumed).
T2 construct: I recall the cited Yamaguchi 1995 clone as mouse TAK1 (Q62073); human TAK1 is O43318; also called HA-tagged TAK1 protein
T2 sequence (looked up): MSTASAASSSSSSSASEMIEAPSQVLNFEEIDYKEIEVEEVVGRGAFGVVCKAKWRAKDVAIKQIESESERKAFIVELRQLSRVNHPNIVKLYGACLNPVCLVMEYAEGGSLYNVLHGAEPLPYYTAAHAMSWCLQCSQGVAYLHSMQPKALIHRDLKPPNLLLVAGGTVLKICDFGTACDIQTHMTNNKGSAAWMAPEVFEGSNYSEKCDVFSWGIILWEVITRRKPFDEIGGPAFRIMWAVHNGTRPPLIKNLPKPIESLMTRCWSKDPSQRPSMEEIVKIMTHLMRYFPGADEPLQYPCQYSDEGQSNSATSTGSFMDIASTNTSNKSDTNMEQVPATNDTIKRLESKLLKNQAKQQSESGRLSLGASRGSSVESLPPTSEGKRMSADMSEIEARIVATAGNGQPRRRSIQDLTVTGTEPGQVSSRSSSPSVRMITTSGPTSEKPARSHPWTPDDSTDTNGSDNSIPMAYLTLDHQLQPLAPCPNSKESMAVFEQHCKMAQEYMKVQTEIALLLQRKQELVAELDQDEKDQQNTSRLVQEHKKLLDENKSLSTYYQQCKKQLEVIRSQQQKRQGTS
The test can be described thus: coimmunoprecipitation from transfected 293 cells: IP anti-T7, immunoblot anti-HA. As to the method: as §1, with “293” for “(A) show an association of TAB2 with TRAF8 in mammalian cells. 293”, “HA-TAK1” for “2Flag-TRAF6”, “length” for “length (Full)”, “HA-TAK1” for “Flag-TRAF6”, “anti-HA” for “anti-Flag”, “right). Schematic representation of various TAB2 constructs is shown in the lower part. The coiled-coil regions are indicated by solid boxes.” for “right).”

B1: T7-TAB2N (other)
chain: MASMTGGQQMGMAQGSHQIDFQVLHDLRQKFPEVPEVVVSRCMLQNNNNLDACCAVLSQESTRYLYGEGDLNFSDDSGISGLRNHMTSLNLDLQSQNIYHHGREGSRMNGSRTLTHSISDGQLQGGQSNSELFQQEPQTAPAQVPQGFNVFGMSSSSGASNSAPHLGFHLGSKGTSSLSQQTPRFNPIMVTLAPNIQTGRNTPTSLHIHGVPPPVLNSPQGNSIYIRPYITTPGGTTRQTQQHSGWVSQFNPMNPQQVYQPSQPGPWTTCPASNPLSHTSSQQPNQQGHQTSHVYMPISSPTTSQPPTIHSSGSSQSSAHSQYNIQNISTGPRKNQIEIKLEPPQRNNSSKLRSSGPRTSSTSSSVNSQTLNRNQPTVYIAASPPNTDELMSRSQPKVYISANAATGDEQV
notes: Expressed in 293 cells; also called N (1-400)
As to B1, the binding result in the test with Flag-TRAF6 and in the test with HA-TAK1 was “no binding” in each case.
